For this experiment, the target named is recombinant Tg-p43 (E. coli-derived) (Toxoplasma gondii). Nature of the experiment: cross-linking; purified E. coli-derived Tg-p43 at 1 mg/ml in PBS with 10% glycerol, 0.25% glutaraldehyde on ice, stopped with Tris-HCl pH 8; Coomassie-stained SDS-PAGE; beta-amylase and carbonic anhydrase for comparison.

Regarding “recombinant Tg-p43 (E. coli-derived) (natural protein)”, the stoichiometry N is 2.

These data come from paper PMC3930741.
